Experimental data reported in patent publication US20260008839A1 (BRIGHAM AND WOMEN S HOSPITAL, published 2026).

What was measured:
Dll4 [1] = assay: flow cytometry: recombinant NOTCH1-Fc + PE anti-IgG Fc on DLL4-expressing Cf2Th cells pre-treated with control IgG
Dll4 [2] = assay: flow cytometry: recombinant NOTCH1-Fc + PE anti-IgG Fc on DLL4-expressing Cf2Th cells pre-treated with control IgG; gate PE+
Dll4 [3] = assay: flow cytometry: recombinant NOTCH1-Fc + PE anti-IgG Fc on DLL4-expressing HEK293T cells pre-treated with control IgG; gate PE+
human DLL1 [4] = target: T1, human DLL1 (human, UniProt O00548 18-545, limits assumed); assay: SPR Biacore 3000, antibody captured on anti-rat Fc (220 RU), scouting
T1 construct: Construct not described; also called Hu.DLL1
T1 sequence (looked up): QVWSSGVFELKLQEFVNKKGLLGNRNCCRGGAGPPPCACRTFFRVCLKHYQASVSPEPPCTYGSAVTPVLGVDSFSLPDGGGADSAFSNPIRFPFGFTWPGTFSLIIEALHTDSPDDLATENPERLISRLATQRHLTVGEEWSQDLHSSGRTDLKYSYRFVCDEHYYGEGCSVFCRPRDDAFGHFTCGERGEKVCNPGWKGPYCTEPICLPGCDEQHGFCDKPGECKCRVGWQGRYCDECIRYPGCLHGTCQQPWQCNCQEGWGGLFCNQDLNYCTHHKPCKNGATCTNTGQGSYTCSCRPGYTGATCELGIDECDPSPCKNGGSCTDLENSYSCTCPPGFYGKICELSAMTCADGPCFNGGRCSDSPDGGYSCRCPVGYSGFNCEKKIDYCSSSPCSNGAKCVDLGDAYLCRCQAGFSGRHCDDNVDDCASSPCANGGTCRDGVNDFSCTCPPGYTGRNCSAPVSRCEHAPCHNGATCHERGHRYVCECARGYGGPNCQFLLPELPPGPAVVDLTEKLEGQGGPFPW
Experimental: (§1) Binding experiments were performed on Biacore 3000 at 25° C. Flow cell 2, 3 and 4 of the CM5 chip were coated with the goat anti-rat Fc Capture Ab using EDC/NHS the amine coupling method as per GE manufacturer's instruction. The unoccupied sites were blocked with 1M ethanolamine. Three test antibodies were captured at an RU as indicated on flow cell 2, 3 and 4. Ag was flowed over the chip. Binding of antigen to the antibodies was monitored in real time. From the observed kₒₙ and koff, KD was determined. For the interactions with fast off rate, steady state kinetics was used to determine KD.
(§2) Scouting analysis was performed using a single analyte concentration of 100 nM. At this concentration, binding should be observed even if the ligand binding affinity is weak. Flow cell 1 response was used for reference subtraction.

human DLL4 [5] = target: T2, human DLL4 (human, UniProt Q9NR61 27-529, limits assumed); assay: SPR Biacore 3000, antibody captured on anti-rat Fc (220 RU), scouting at 100 nM analyte
T2 construct: also called Hu.DLL4; HuDLL4
Experimental: as §1, §2

porcine DLL4 [6] = target: T3, porcine DLL4 (porcine, UniProt A0A4X1URL1 27-529); assay: SPR Biacore 3000, antibody captured on anti-rat Fc (80 RU), scouting at 20 nM and 100 nM analyte
T3 construct: Construct not described (pig DLL4 ECD is named only for hybridoma screening); also called pig DLL4; porcine DDL4
Experimental: as §1

porcine DLL4 [7] = target: T3, porcine DLL4; assay: SPR Biacore 3000, antibody captured on anti-rat Fc (110 RU), full kinetics, analyte 0-50 nM
Experimental: as §1

human DLL4 [8] = target: T2, human DLL4; assay: SPR Biacore 3000, antibody captured on anti-rat Fc (140 RU), full kinetics, analyte 0-12.5 nM
Experimental: as §1

porcine DLL4 [9] = target: T3, porcine DLL4; assay: SPR Biacore 3000, antibody captured on anti-rat Fc (75 RU), scouting at 20 nM and 100 nM analyte
human DLL4 [10] = target: T2, human DLL4; assay: SPR Biacore 3000, antibody captured on anti-rat Fc (161 RU), scouting at 100 nM analyte
Experimental: as §1, §2

porcine DLL4 [11] = target: T3, porcine DLL4; assay: SPR Biacore 3000, antibody captured on anti-rat Fc (130 RU), full kinetics, analyte 0-200 nM
Experimental: as §1

human DLL1 [12] = target: T1, human DLL1; assay: SPR Biacore 3000, antibody captured on anti-rat Fc (161 RU), scouting
Experimental: as §1, §2

human DLL1 [13] = target: T1, human DLL1; assay: head of the antibody's table; assay not named
human DLL4 [14] = target: T2, human DLL4; assay: head of the antibody's table; summary bound, assay and unit not named there
porcine DLL4 [15] = target: T3, porcine DLL4; assay: SPR Biacore 3000, antibody captured on anti-rat Fc (80 RU), full kinetics, analyte 0-50 nM
Experimental: as §1

human DLL4 [16] = target: T2, human DLL4; assay: SPR Biacore 3000, full kinetics, against 8D2 as reference
Experimental: as §1

human DLL4 [17] = target: T2, human DLL4; assay: SPR Biacore 3000, antibody captured on anti-rat Fc (90 RU), full kinetics, analyte 0-25 nM
Experimental: as §1

human DLL4 [18] = target: T2, human DLL4; assay: SPR Biacore 3000, antibody captured on anti-rat Fc (170 RU), scouting at 100 nM analyte
Experimental: as §1, §2

T3 sequence (A0A4X1URL1 entry or part of it): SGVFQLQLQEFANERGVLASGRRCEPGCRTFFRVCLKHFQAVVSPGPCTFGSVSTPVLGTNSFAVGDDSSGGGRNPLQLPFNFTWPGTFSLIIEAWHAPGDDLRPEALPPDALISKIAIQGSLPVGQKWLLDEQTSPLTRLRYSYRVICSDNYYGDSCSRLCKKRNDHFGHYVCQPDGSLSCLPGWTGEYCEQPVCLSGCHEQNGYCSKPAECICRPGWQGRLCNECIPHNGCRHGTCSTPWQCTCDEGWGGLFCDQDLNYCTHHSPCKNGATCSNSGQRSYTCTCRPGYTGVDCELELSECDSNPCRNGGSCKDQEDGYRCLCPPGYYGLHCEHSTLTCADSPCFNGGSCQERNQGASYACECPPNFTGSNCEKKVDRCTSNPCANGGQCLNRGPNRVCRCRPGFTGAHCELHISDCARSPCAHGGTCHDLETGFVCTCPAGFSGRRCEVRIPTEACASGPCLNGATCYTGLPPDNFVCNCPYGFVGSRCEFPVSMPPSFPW
T2 sequence (Q9NR61 27-529 limits assumed): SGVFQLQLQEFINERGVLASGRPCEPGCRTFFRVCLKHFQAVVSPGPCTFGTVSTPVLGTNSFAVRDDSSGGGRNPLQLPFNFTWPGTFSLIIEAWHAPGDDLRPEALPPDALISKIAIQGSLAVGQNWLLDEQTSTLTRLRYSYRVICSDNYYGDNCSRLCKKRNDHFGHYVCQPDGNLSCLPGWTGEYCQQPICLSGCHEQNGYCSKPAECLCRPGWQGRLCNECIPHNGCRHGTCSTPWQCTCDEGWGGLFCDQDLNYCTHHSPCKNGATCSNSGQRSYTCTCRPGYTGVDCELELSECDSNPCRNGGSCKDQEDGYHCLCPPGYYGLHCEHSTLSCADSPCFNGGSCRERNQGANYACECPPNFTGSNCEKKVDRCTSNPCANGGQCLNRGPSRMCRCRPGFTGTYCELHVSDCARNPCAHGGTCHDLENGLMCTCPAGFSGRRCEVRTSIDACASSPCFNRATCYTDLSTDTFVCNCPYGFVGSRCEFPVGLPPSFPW
Chain of Dll4 (chain, as listed by the source limits assumed): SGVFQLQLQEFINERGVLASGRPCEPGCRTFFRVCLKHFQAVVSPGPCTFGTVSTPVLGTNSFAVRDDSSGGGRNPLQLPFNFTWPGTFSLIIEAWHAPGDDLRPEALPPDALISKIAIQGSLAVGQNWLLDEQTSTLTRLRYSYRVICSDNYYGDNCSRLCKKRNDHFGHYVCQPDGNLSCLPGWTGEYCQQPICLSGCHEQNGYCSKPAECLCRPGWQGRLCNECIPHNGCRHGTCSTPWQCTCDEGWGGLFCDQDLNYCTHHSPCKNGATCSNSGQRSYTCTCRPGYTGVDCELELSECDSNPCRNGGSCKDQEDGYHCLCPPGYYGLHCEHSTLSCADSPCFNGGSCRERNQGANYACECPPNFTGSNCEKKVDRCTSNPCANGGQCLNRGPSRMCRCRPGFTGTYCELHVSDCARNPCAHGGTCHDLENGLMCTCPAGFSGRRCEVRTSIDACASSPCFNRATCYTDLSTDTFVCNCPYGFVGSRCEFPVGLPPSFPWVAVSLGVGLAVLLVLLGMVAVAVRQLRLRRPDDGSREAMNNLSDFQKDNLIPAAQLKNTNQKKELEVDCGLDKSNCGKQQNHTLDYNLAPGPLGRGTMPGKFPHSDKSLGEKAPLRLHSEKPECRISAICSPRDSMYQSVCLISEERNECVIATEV

Q: How did the PE positive cells (%) (Dll4 [1]) turn out when NOTCH1-Fc (Fc fusion) was run?
A: 16.8%

Q: And the PE positive cells (%) (Dll4 [2])?
A: 11%

Q: What about the PE positive cells (%) (Dll4 [3]) of the same molecule?
A: 9.6%

B1: Monoclonal Antibody 8D2 (antibody, V domains shown)
VH: SGGGLVQPGRSMKLSCAASGFTFSNYDMAWVRQDPKKGLEWVATISYDGRSTYYRDSVKGRFTISRDNAKSTLYLQMDSLRSEDTATYYCKDYDGHYHPYGMEAWGQGISVTVSS
VL: DIVLTQSPALAVTLGQRATISCRASQSVTISNYNLMQWYQQRPGRQPKLLIYDASNLASGIPARFSGSGSGTDFTLTIDPVQADDIATYYCQQSRDDPRTFGGGTKLELR
notes: Rat hybridoma monoclonal antibody, IgG type (captured by goat anti-rat Fc); also called BMH-8D2-D10; rat 8D2
Q: What does the source list for B1?
A: binding result (human DLL1 [4]): no binding (tested: 100 nM); Kd (human DLL4 [5]): 2.27 nM; koff (human DLL4 [5]): 0.00108 s⁻¹; kon (human DLL4 [5]): 474000 M⁻¹ s⁻¹; Kd (porcine DLL4 [6]): 9.95 nM; koff (porcine DLL4 [6]): 0.00171 s⁻¹; kon (porcine DLL4 [6]): 172000 M⁻¹ s⁻¹; Kd (porcine DLL4 [7]): 7.21 nM; koff (porcine DLL4 [7]): 0.00182 s⁻¹; kon (porcine DLL4 [7]): 253000 M⁻¹ s⁻¹; Kd (human DLL4 [8]): 2.12 nM; koff (human DLL4 [8]): 0.00161 s⁻¹; kon (human DLL4 [8]): 759000 M⁻¹ s⁻¹

B2: Monoclonal Antibody 2H10 (antibody, V domains shown)
VH: QVQVKESGPGLVQPSQTLSLTCIVSGFSLSSYHVSWVRQPPGKSLVWMGTIWAGGGTNYNSAVQSRLSISRDTSKSQVFLKVNSLQPEDTGTYYCARHYYDGYYHGPYFDYWGQGVMVTV
VL: SPASLSASLGETVTFECRASEDIYTNLAWYQQKPGNSPQLLIYDANTLADGVPSRFSGSGSGTQFSLKINSLQSEDVASYFCQQYDSYPWTFGGGTKLELRR
notes: Rat hybridoma monoclonal antibody, IgG type (captured by goat anti-rat Fc); also called BMH-2H10-A7
Q: How did the Kd (porcine DLL4 [9]) turn out when B2 was run?
A: 1240 nM

Q: And the koff (porcine DLL4 [9])?
A: 0.00345 s⁻¹

Q: And the kon (porcine DLL4 [9])?
A: 2790 M⁻¹ s⁻¹

Q: What about the Kd (human DLL4 [10]) of the same molecule?
A: 88.6 nM

Q: And the koff (human DLL4 [10])?
A: 0.00109 s⁻¹

Q: And the kon (human DLL4 [10])?
A: 12400 M⁻¹ s⁻¹

Q: And the Kd (porcine DLL4 [11])?
A: 9370 nM

Q: What about the koff (porcine DLL4 [11]) of the same molecule?
A: 0.00276 s⁻¹

Q: What about the kon (porcine DLL4 [11]) of the same molecule?
A: 295 M⁻¹ s⁻¹

Q: Does B2 bind (human DLL1 [12])?
A: no binding (tested: 100 nM)

B3: Monoclonal Antibody 8C2 (antibody, V domains shown)
VH: QVQLKESGPGLVQPSQTLSLTCTVSGISISIYGVSWVRQPPGKGLEWMGGIWGDGSTDYNSALKSRLSLSRDTSKSQVFLKMNSLQTEDTAIYFCTLSGDFDYWGHGVLVTVSS
VL: DIQLTQSPASLSASLDEIVTITCQASLDIGNWLAWYQQKTGKSPQLLIYGATSLAGGVPSRFSGSRSGTQYSLKISKLQVEDTGIYYCLQHYRAPFTFGSGTKLEI
notes: Rat hybridoma monoclonal antibody, IgG type (captured by goat anti-rat Fc); also called BMH-8C2-D10; BMH-8C2-D4
Q: Does B3 bind (human DLL1 [13])?
A: no binding

Q: What about the kon (human DLL4 [14]) of the same molecule?
A: > 500000 M⁻¹ s⁻¹

Q: What about the Kd (porcine DLL4 [15]) of the same molecule?
A: 7.07 nM

Q: What about the koff (porcine DLL4 [15]) of the same molecule?
A: 0.00198 s⁻¹

Q: And the kon (porcine DLL4 [15])?
A: 281000 M⁻¹ s⁻¹

Q: What about the “fold higher affinity than 8D2” value (human DLL4 [16]) of the same molecule?
A: ~10 fold

Q: What about the “fold lower off rate than 8D2” value (human DLL4 [16]) of the same molecule?
A: 4 fold

Q: And the Kd (porcine DLL4 [6])?
A: 15.4 nM

Q: And the koff (porcine DLL4 [6])?
A: 0.00162 s⁻¹

Q: And the kon (porcine DLL4 [6])?
A: 106000 M⁻¹ s⁻¹

Q: And the Kd (human DLL4 [17])?
A: 0.343 nM

Q: What about the koff (human DLL4 [17]) of the same molecule?
A: 0.000439 s⁻¹

Q: What about the kon (human DLL4 [17]) of the same molecule?
A: 1.28e+06 M⁻¹ s⁻¹

Q: What about the Kd (human DLL4 [18]) of the same molecule?
A: 3.68 nM

Q: And the koff (human DLL4 [18])?
A: 0.000505 s⁻¹

Q: What about the kon (human DLL4 [18]) of the same molecule?
A: 137000 M⁻¹ s⁻¹
